Reference: paper PMC5805628

Target: EGFR co-transfected into Q293 cells (UniProt P00533)
Assay: co-IP

Row | amount in the anti-EGFR immunoprecipitate, normalized to wild type TROY | Substance
1 | 0.43 | TROY CRD2 (from UniProt Q9NS68 30-423) (receptor)
2 | 0.83 | TROY CRD3 (from UniProt Q9NS68 30-423) (receptor)
